Data on six substances can be found in patent US20230287454.

Holding throughout (experiment): cell_activity
In series [1] the target is CD38 TALEN Left (synthetic construct) (UniProt Q56830). Conditions: CD38-negative T cells, paired with CD38 right, simultaneous electroporation.
The target in series [2] is CD38 TALEN Right (synthetic construct) (UniProt Q56830). Conditions: CD38-negative T cells, paired with CD38 left, simultaneous electroporation.
The subject of series [3] is CD52 TALEN Left (synthetic construct). To be noted: CD52-negative T cells, paired with CD52 right, simultaneous electroporation.
Series [4] has as its target TRAC TALEN Left (synthetic construct) (UniProt Q56830). Conditions: TCR-negative T cells, paired with TRAC right, simultaneous electroporation with CD38 and CD52 TALEN.
The target of series [5] is CD52 TALEN Right (synthetic construct) (UniProt Q56830). Conditions: CD52-negative T cells, paired with CD52 left, simultaneous electroporation.
Series [6] has as its target TRAC TALEN Right (synthetic construct) (UniProt Q56830). Conditions: TCR-negative T cells, paired with TRAC left, simultaneous electroporation.

Consider CD38 left half-site, for which, in series [1], the activity worked out at 66.1%.

In series [2], CD38 right half-site displayed an activity of 66.1%.

In turn, CD52 left half-site returned an activity in series [3] of 57%.

Substance TRAC left half-site registered an activity in series [4] of 67.8%.

In the case of CD52 right half-site, the activity in series [5] stood at 57%.

Substance TRAC right half-site registered an activity in series [6] of 67.8%.
